Paper PMC12102759

B1: ATXN2 peptide 913-928 (Ataxin-2), 16-mer library wild type / PABPC1 PABC (PABPC1 PABC domain, residues 544-623) (parent)
chain 1: TLNPNAKEFNPRSFSQ
chain 2: PLTASMLASAPPQEQKQMLGERLFPLIQAMHPTLAGKITGMLLEIDNSELLHMLESPESLRSKVDEAVAVLQAHQAKEAA
B2: PEX5 peptide 238-253 (Peroxisomal targeting signal 1 receptor), 16-mer library wild type / PEX14 Pex14 (PEX14 PEX14, residues 16-84) (parent)
chain 1: AQAEQWAAEFIQQQGT
chain 2: TPGSENVLPREPLIATAVKFLQNSRVRQSPLATRRAFLKKKGLTDEEIDMAFQQSGTAADEPSSLGPAT
B3: PAIP1 peptide 126-141 (Polyadenylate-binding protein-interacting protein 1), 16-mer library wild type / PABPC1 PABC (PABPC1 PABC domain, residues 544-623) (parent)
chain 1: SKLSVNAPEFYPSGYS
chain 2: B1 chain 2

Variants of: B1
Assay: proteomic peptide phage display deep mutational scan (ProP-PD DMS): M13 P8 16-mer library selected against immobilised GST-tagged bait for four days (rounds), NGS of the eluted pools per day and pseudo-replica
Details: with PABPC1 PABC (PABPC1 PABC domain, residues 544-623); bait immobilised on MaxiSorp plates (10 µg), library pre-cleared on GST, 2 h binding at 4 °C, five washes; one round per day, days 1-4; value from days 2 and 3; scale: average fractional NGS count over selection days 2 and 3

Screen value: each site, then its substitutions
chain 1 T1: S 0.000147, Q 0.000237, W 4.71e-05, E 0.000115
chain 1 N5: W 0.000157, S 0.000305, Y 0.000372, P 1.03e-05
chain 1 P4: E 1.57e-05, S 0.000147, Q 0.000331, W 0, A 0.000191, F 0.000109, Y 0
chain 1 N10: G 0.000262, V 1.03e-05, K 0.000142, E 2.66e-05
chain 1 P11: I 9.64e-06
chain 1 N3: K 0, I 0, T 8.32e-05, P 0
chain 1 S15: N 0.000264, L 6.16e-05, K 0.00027, T 2.11e-05, Y 0.000175
chain 1 S13: M 0.000163, F 7.96e-05, V 0.000423, E 0.000117, H 0.00026, I 0, K 0.000149

Variants of: B2
Assay: as above
Details: with PEX14 Pex14 (PEX14 PEX14, residues 16-84); bait immobilised on MaxiSorp plates (10 µg), library pre-cleared on GST, 2 h binding at 4 °C, five washes; one round per day, days 1-4; value from days 2 and 3; keep out of graded; scale: average fractional NGS count over selection days 2 and 3

Screen value, by site and new letter:
chain 1 Q12: F 0.000147, R 0, V 0.000188, L 0.000406, K 0.000341, T 0.000592, P 0.000699, A 0
chain 1 A8: R 0.000559, F 0.00013, G 0.00272, W 0.00148, L 0.00137, P 0, D 0
chain 1 Q13: Y 0.000125, T 0.000335, R 0.00284, K 0, M 0.000454, S 0, G 0.000627, F 0.000134, D 0.000183, A 0.00172, H 0
chain 1 T16: Q 0.00068, M 0.000253, L 0.000704, D 0.000181, W 0.00013, E 0, A 0.000218, P 0.000382
chain 1 A3: N 0.00244, I 0, G 0.000791, V 0.000366, M 0.000674, D 0.000241, S 0.000376, E 0.000385, Y 0.000443, T 0.000152, P 0.000153, L 0
chain 1 Q5: N 9.07e-05, I 7.71e-05, A 0.000195, H 0.000302, S 0.000207, T 0.00028, E 0, W 0
chain 1 E9: D 0.00183, T 0.00204, H 0.0023, I 0, A 0.00516, K 0.0012, Q 0.000716
chain 1 Q2: E 0, A 0, T 0.000198, P 0.00113, R 7.71e-05, N 7.71e-05
chain 1 A7: R 0.00151, D 0, N 0, V 0, Y 0.00359, S 0.00111, H 0.00597
chain 1 W6: L 0
chain 1 I11: Q 0.00134, E 0.00192, F 0.000739, Y 0.000717, W 0, D 0.00263, P 0.00284, T 0.000576
chain 1 G15: S 0.000212, Y 0, V 0.000135, I 0, R 0.000288
chain 1 F10: Q 0.000673, Y 0.000488, H 0.014, S 0.000175, W 0.00148
chain 1 E4: V 0, M 0.000893, G 0.00183, K 0.00104, I 0.000318, W 0.00183, A 0.000155, Y 0.000168
chain 1 Q14: S 0.00134, W 0.000797, I 0.00105, G 0.00214, K 0, D 0.000186, E 0, V 0.000266, T 0

Variants of: B3
Assay: as above
Details: with PABPC1 PABC (PABPC1 PABC domain, residues 544-623); bait immobilised on MaxiSorp plates (10 µg), library pre-cleared on GST, 2 h binding at 4 °C, five washes; one round per day, days 1-4; value from days 2 and 3; keep out of graded; scale: average fractional NGS count over selection days 2 and 3

Screen value, by site and new letter:
chain 1 S1: I 0.00076, P 0.000196, R 7.1e-05, F 0, N 0.000154, Y 0.000342, V 0.000196, Q 0.000406, K 0.00037, M 0.0011, L 0.00185, W 0.000299, H 0.000214, A 0.0012
chain 1 S13: Q 0, N 0.00287, L 0.000235, H 0.000367, P 0, G 4.28e-05, Y 0.00035
